Test results as given in PMC4417048 (Nature cell biology, 2015).

T1: Syndetin (endogenous, human cells) (human (endogenous in H4 and HeLa), UniProt Q96JG6-1 1-964)
T1 sequence: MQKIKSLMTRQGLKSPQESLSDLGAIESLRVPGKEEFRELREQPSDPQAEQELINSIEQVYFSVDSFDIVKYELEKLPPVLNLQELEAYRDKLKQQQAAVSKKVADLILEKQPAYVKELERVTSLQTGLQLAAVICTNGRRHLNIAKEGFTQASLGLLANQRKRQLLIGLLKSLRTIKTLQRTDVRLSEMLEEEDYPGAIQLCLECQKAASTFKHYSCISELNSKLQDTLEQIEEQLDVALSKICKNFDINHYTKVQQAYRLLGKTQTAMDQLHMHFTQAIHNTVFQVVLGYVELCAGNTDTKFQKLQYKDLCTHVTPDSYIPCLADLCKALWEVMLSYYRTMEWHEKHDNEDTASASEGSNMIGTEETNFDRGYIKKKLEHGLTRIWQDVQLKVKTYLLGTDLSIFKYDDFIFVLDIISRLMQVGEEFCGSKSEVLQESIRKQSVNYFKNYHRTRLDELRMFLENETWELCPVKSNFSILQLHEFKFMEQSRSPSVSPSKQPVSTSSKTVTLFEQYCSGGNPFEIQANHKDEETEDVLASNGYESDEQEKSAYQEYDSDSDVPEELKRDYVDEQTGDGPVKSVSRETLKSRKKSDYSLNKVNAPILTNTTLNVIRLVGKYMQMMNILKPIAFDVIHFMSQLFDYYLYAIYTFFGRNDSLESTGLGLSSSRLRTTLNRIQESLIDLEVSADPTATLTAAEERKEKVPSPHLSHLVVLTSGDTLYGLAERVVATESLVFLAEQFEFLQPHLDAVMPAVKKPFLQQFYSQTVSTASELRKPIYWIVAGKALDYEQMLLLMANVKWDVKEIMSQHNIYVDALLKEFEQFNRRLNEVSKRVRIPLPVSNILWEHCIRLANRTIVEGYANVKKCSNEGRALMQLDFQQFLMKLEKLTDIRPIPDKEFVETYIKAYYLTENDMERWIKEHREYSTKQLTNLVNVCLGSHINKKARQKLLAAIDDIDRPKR


How the values were obtained:
[1] = target: Syndetin (endogenous, human cells) (human (endogenous in H4 and HeLa)) (UniProt Q96JG6); experiment: sedimentation velocity on glycerol gradients + SEC
[2] = target: T1, Syndetin (endogenous, human cells); experiment: sedimentation velocity on glycerol gradients + SEC

Row | stoichiometry N [1] | stoichiometry N [2] | Molecule
1 | 1 | – | Vps53 (endogenous, human cells) (from UniProt Q5VIR6 1-832) (natural protein)
2 | – | 1 | Vps52 (endogenous, human cells) (natural protein) MAAAATMAAAARELVLRAGTSDMEEEEGPLAGGPGLQEPLQLGELDITSDEFILDEVDVHIQANLEDELVKEALKTGVDLRHYSKQVELELQQIEQKSIRDYIQESENIASLHNQITACDAVLERMEQMLGAFQSDLSSISSEIRTLQEQSGAMNIRLRNRQAVRGKLGELVDGLVVPSALVTAILEAPVTEPRFLEQLQELDAKAAAVREQEARGTAACADVRGVLDRLRVKAVTKIREFILQKIYSFRKPMTNYQIPQTALLKYRFFYQFLLGNERATAKEIRDEYVETLSKIYLSYYRSYLGRLMKVQYEEVAEKDDLMGVEDTAKKGFFSKPSLRSRNTIFTLGTRGSVISPTELEAPILVPHTAQRGEQRYPFEALFRSQHYALLDNSCREYLFICEFFVVSGPAAHDLFHAVMGRTLSMTLKHLDSYLADCYDAIAVFLCIHIVLRFRNIAAKRDVPALDRYWEQVLALLWPRFELILEMNVQSVRSTDPQRLGGLDTRPHYITRRYAEFSSALVSINQTIPNERTMQLLGQLQVEVENFVLRVAAEFSSRKEQLVFLINNYDMMLGVLMERAADDSKEVESFQQLLNARTQEFIEELLSPPFGGLVAFVKEAEALIERGQAERLRGEEARVTQLIRGFGSSWKSSVESLSQDVMRSFTNFRNGTSIIQGALTQLIQLYHRFHRVLSQPQLRALPARAELINIHHLMVELKKHKPNF
3 | – | 1 | Ang2 (endogenous, human cells) (natural protein) MAAAAAAGPSPGSGPGDSPEGPEGEAPERRRKAHGMLKLYYGLSEGEAAGRPAGPDPLDPTDLNGAHFDPEVYLDKLRRECPLAQLMDSETDMVRQIRALDSDMQTLVYENYNKFISATDTIRKMKNDFRKMEDEMDRLATNMAVITDFSARISATLQDRHERITKLAGVHALLRKLQFLFELPSRLTKCVELGAYGQAVRYQGRAQAVLQQYQHLPSFRAIQDDCQVITARLAQQLRQRFREGGSGAPEQAECVELLLALGEPAEELCEEFLAHARGRLEKELRNLEAELGPSPPAPDVLEFTDHGGSGFVGGLCQVAAAYQELFAAQGPAGAEKLAAFARQLGSRYFALVERRLAQEQGGGDNSLLVRALDRFHRRLRAPGALLAAAGLADAATEIVERVARERLGHHLQGLRAAFLGCLTDVRQALAAPRVAGKEGPGLAELLANVASSILSHIKASLAAVHLFTAKEVSFSNKPYFRGEFCSQGVREGLIVGFVHSMCQTAQSFCDSPGEKGGATPPALLLLLSRLCLDYETATISYILTLTDEQFLVQDQFPVTPVSTLCAEARETARRLLTHYVKVQGLVISQMLRKSVETRDWLSTLEPRNVRAVMKRVVEDTTAIDVQVGLLYEEGVRKAQSSDSSKRTFSVYSSSRQQGRYAPSYTPSAPMDTNLLSNIQKLFSERIDVFSPVEFNKVSVLTGIIKISLKTLLECVRLRTFGRFGLQQVQVDCHFLQLYLWRFVADEELVHLLLDEVVASAALRCPDPVPMEPSVVEVICERG
